# Article PMC6532946, “Structure and assembly of pilotin-dependent and -independent secretins of the type II secretion system” (PLoS Pathogens, 2019)
# B1: ExeD secretin from A. hydrophila (cell-free synthesized, His-tagged) (natural protein)
# chain: TEYSASFKNADIEEFINTVGKNLSKTIIIEPSVRGKINVRSYDLLNEEQYYQFFLSVLDVYGFAVVPMDNGVLKVVRSKDAKTSAIPVVDETNPGIGDEMVTRVVPVRNVSVRELAPLLRQLNDNAGGGNVVHYDPSNVLLITGRAAVVNRLVEVVRRVDKAGDQEVDIIKLKYASAGEMVRLVTNLNKDGNSQGGNTSLLLAPKVVADERTNSVVVSGEPKARARIIQMVRQLDRDLQSQGNTRVFYLKYGKAKDMVEVLKGVSSSIEADKKGGGTATTAGGGASIGGGKLAISADETTNALVITAQPDVMAELEQVVAKLDIRRAQVLVEAIIVEIADGDGLNLGVQWANTNGGGTQFTNAGPGIGSVAIAAKDYKDNGTTTGLAKLAENFNGMAAGFYQGNWAMLVTALSTNTKSDILSTPSIVTMDNKEASFNVGQEVPVQTGTQNSTSGDTTFSTIERKTVGTKLVVTPQINEGDSVLLTIEQEVSSVGKQATGTDGLGPTFDTRTVKNAVLVKSGETVVLGGLMDEQTKEEVSKVPLLGDIPVLGYLFRSTSNNTSKRNLMVFIRPTILRDANVYSGISSNKYTLFRAQQLDAVAQEGYATSPDRQVLPEYGQDVTMSPEAQKQIELMKTHQQATADGVQPFVQGNK
# notes: ExeD, T2SS secretin of Aeromonas hydrophila; a TEV cleavage site linker lies between the His-6 tag and the protein. numbers count on: the mature protein; No TEV cleavage is described; also called pilotin-independent ExeD; GspD; source: cell-free expression system with liposomes, extracted as multimers with Zw3-14, purified (Ni-NTA, Superose 6); copies: 15
# Columns and labels:
# [1] = molecular target: EpsD secretin from V. vulnificus (cell-free synthesized, His-tagged) (V. vulnificus); assay: cryo-EM structure; purified multimers in TN buffer with Zw3-14, Quantifoil holey carbon grids with an extra 2 nm carbon layer; 2D class averages of top views; C15 symmetry imposed in the reconstruction
# [2] = molecular target: the molecule itself; assay: as above
molecule,measurement,setting,value
"EpsD secretin from V. vulnificus (cell-free synthesized, His-tagged) (natural protein)",stoichiometry N,[1],15
B1,stoichiometry N,[2],15
